According to patent US20080081903A1, “METHOD FOR SCREENING TRANSCRIPTIONAL COREGULATORY PROTEINS OF TRANSCRIPTION FACTORS, AND ANDROGEN RECEPTOR TRANSCRIPTIONAL COREGULATORY PROTEINS AS TARGETS FOR ANDROGEN RECEPTOR-DEPENDENT DISEASES” (NEW YORK UNIVERSITY, priority 2001, published 2008):

Experiments:
[1] = target: T1, androgen receptor ligand-binding domain (579-901) (Rattus norvegicus, UniProt P15207); assay: Modified yeast two-hybrid specificity panel; settings: absence or presence of hormone
T1 construct: expressed in transfected cells; host or cells: yeast (modified two-hybrid assay)
T1 sequence (P15207 579-901): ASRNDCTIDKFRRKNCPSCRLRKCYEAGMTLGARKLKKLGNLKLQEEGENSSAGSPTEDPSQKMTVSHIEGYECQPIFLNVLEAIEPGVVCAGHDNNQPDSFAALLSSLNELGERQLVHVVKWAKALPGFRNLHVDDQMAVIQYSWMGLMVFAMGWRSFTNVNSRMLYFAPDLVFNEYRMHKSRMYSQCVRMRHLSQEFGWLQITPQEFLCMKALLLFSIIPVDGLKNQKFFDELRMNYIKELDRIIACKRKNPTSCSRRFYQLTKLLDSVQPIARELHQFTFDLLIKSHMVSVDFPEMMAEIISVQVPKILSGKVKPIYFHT

[2] = target: T2, androgen receptor (AR) N-terminus (18-500) (Rattus norvegicus, UniProt P15207); assay: Modified yeast two-hybrid, qualitative plate beta-galactosidase assay; format: binding
T2 construct: receptor residues 18 through 500 (using the rat androgen receptor number scheme); expressed in transfected cells; host or cells: Saccharomyces cerevisiae EGY188
T2 sequence (P15207 18-500): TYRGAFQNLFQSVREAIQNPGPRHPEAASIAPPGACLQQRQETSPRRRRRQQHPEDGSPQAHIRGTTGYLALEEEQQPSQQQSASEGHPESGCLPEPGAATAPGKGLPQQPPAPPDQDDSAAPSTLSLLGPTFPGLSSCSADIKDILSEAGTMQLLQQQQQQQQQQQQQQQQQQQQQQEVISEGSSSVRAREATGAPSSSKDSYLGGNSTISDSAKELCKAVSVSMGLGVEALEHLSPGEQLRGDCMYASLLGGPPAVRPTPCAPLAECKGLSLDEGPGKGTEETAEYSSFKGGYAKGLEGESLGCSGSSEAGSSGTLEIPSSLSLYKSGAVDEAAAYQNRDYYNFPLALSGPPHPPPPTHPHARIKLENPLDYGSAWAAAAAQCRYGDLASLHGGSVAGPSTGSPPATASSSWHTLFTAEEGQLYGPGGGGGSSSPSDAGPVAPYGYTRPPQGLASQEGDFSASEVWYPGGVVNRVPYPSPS
From the text: The modified yeast two hybrid assay is described in Hittelman et al., 1999. EGY188 was transformed by the lithium acetate method with (i) pJG4-5:AR18-500, (ii) pEG202:LNCaP cell cDNA library and (iii) pJK103, a β-galactosidase reporter gene with a single LexA operator. Potential interacting proteins were selected by plating the cDNA library expressing transformants onto galactose plates lacking leucine and containing X-gal.
To analyze the specificity of ART interaction, the capacity of the strongest androgen receptor N-terminus-interacting factors to associate with a panel of transcriptional regulatory proteins in the modified yeast two-hybrid assay was examined. ART-5, ART-27, and ART-37 were tested for interaction with Sp1A (Sp183-262), Sp1B (Sp1263-524) the cyclic AMP response element binding protein (CREB3-296), TBP-associated factor 130 (TAFII130270-700), the glucocorticoid receptor AF1 (GR107-237), and the steroid receptor coactivator-1 (SRC-1374-800).
The strength of interaction was determined by a qualitative plate beta-galactosidase assay after a 24 hour incubation on galactose X-gal plates at 301 C.
ART-27 derivatives containing amino acids 1-45, 1-67, 1-127, 46-157, 68-157, 127-157, 1-157, and 1-45/127-157 were expressed as fusion proteins with LexA. These derivatives were tested for their ability to interact with the androgen receptor N-terminus (AR18-500). The strength of interaction was determined by a qualitative plate beta-galactosidase assay after a 24 hour incubation on galactose X-gal plates at 301 C.

B1: ART-5: Androgen Receptor Trapped protein, SEQ ID NO:4, unknown function, represented in EST database (protein)
chain: MHNPDGSASPTADPGSELQTLGQAARRPPPPRAGHDAPRRTRPSARKPLSCFSRRPMPTREPPKTRGSRGHLHTHPPGPGPPLQGLAPRGLKTSAPRPPCQPQPGPHKAKTKKIVFEDELLSQALLGAKKPIGAIPKGHKPRPHPVPDYELKYPPVSSERERSRYVAVFQDQYGEFLELQHEVGCAQAKLRQLEALLSSLPPPQSQKEAQVAARVWREFEMKRMDPGFLDKQARCHYLKGKLRHLKTQIQKFDDQGDSEGSVYF
modifications: Human
B1 was tested, and the “interaction with androgen receptor ligand binding domain” value [1] was “No interaction”, the “interaction with androgen receptor N-terminus” value ([2]; 24 hour incubation on galactose X-gal plates) was “interacts exclusively” and the “specificity of interaction among panel of transcriptional regulatory factors” value ([2]; AR N-terminus, AR LBD, Sp1A, Sp1B, CREB, TAFII130, GR AF1, SRC-1) was “interacts rather specifically”.
